According to paper PMC3305458, “E2F1 Mediated Apoptosis Induced by the DNA Damage Response Is Blocked by EBV Nuclear Antigen 3C in Lymphoblastoid Cells” (PLoS Pathogens, 2012):

Target: flag-tagged wild-type E2F1 (residues 1–437) (UniProt Q01094 1-437)
Assay: cell-based or functional assay

Chain of flag-tagged wild-type E2F1 (residues 1–437) (Q01094 whole entry, the tested form may be a part): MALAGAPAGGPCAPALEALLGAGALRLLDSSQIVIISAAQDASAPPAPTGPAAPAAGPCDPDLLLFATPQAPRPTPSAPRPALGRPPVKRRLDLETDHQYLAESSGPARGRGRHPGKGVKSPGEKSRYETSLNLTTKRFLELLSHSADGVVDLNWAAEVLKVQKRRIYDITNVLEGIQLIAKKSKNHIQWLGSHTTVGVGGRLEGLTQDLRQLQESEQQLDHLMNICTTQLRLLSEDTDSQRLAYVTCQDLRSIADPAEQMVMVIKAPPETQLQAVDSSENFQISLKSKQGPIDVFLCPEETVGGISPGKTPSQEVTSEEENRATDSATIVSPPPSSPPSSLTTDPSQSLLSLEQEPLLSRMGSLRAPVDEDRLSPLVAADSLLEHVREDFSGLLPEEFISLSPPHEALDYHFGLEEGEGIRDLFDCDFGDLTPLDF

B1: myc-tagged EBNA3C (residues 1–992) (natural protein)
chain: MESFEGQGDSRQSPDNERGDNVQTTGEHDQDPGPGPPSSGASERLVPEESYSRDQQPWGQSRGDENRGWMQRIRRRRRRRAALSGHLLDTEDNVPPWLPPHDITPYTARNIRDAACRAVKQSHLQALSNLILDSGLDTQHILCFVMAARQRLQDIRRGPLVAEGGVGWRHWLLTSPSQSWPMGYRTATLRTLTPVPNRVGADSIMLTATFGCQNAARTLNTFSATVWTPPHAGPREQERYAREAEVRFLRGKWQRRYRRIYDLIELCGSLHHIWQNLLQTEENLLDFVRFMGVMSSCNNPAVNYWFHKTIGNFKPYYPWNAPPNENPYHARRGIKEHVIQNAFRKAQIQGLSMLATGGEPRGDATSETSSDEDTGRQGSDVELESSDDELPYIDPNMEPVQQRPVMFVSRVPAKKPRKLPWPTPKTHPVKRTNVKTSDRSDKAEAQSTPERPGPSEQSSVTVEPAHPTPVEMPMVILHQPPPVPKPVPVKPTPPPSRRRRGACVVYDDDVIEVIDVETTEDSSSVSQPNKPHRKHQDGFQRSGRRQKRAAPPTVSPSDTGPPAVGPPAAGPPAAGPPAAGPPAAGPPAAGPPAAGPRILAPLSAGPPAAGPHIVTPPSARPRIMAPPVVRMFMRERQLPQSTGRKPQCFWEMRAGREITQMQQEPSSHLQSATQPTTPRPSWAPSVCALSVMDAGKAQPIESSHLSSMSPTQPISHEEQPRYEDPDAPLDLSLHPDVAAQPAPQAPYQGYQEPPAPQAPYQGYQEPPPPQAPYQGYQEPPAHGLQSSSYPGYAGPWTPRSQHPCYRHPWAPWSQDPVHGHTQGPWDPRAPHLPPQWDGSAGHGQDQVSQFPHLQSETGPPRLQLSLVPLVSSSAPSWSSPQPRAPIRPIPTRFPPPPMPLQDSMAVGCDSSGTACPSMPFASDYSQGAFTPLDINATTPKRPRVEESSHGPARCSQATAEAQEILSDNSEISVFPKDAKQTDYDASTESELD
  proliferation of G418-selected Saos-2 cells after serum starvation and 5 µM etoposide, counted for 6 days: E2F1 plus EBNA3C against E2F1 alone or E2F1 plus EBNA3C residues 366-620: ~4 fold
